Patent US7425418B2, “Compounds that modulate processes associated with IgE production” (Rigel Pharmaceuticals, Inc., priority 2002, dated 2008)

Tests used:
human RXR-β (hRXR-β) = target: T1, human RXR-β (hRXR-β) (Homo sapiens, UniProt P28702); test: β-galactosidase yeast two-hybrid (YTH) interaction assay; type: binding
T1 construct: expressed in transfected cells; prey cDNA from a library of the A5T4 reporter cell line (BJAB B-cells)
T1 sequence (P28702 1-533): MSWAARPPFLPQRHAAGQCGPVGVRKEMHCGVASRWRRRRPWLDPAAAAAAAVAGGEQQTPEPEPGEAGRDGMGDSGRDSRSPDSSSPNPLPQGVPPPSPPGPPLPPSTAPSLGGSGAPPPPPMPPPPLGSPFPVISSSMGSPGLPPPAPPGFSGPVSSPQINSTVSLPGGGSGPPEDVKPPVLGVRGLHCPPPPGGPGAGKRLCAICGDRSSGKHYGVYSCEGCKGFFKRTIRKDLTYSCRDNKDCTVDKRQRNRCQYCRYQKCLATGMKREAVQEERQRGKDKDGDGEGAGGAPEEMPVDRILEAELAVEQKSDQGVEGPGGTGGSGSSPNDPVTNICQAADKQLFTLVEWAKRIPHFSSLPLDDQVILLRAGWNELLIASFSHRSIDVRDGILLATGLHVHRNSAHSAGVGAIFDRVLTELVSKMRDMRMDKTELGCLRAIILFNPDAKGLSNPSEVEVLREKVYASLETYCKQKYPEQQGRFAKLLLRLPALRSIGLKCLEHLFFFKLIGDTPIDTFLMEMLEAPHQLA
Procedure: Potential binding partners for peptide CL06wt were identified in a β-galactosidase yeast two-hybrid (YTH) assay using peptide CL06wt as bait and a cDNA library constructed from the A5T4 reporter cell line as prey. Binding was assessed by β-galactosidase quantification using BetaFluor (Novagen) as a substrate. A negative interaction control (no cDNA fused downstream of the GAL4 activation domain sequence) was also run. A general outline of the YTH assay is illustrated in FIG. 5A. Following clustering, filtering to remove non-specific bait hits (e.g., GFP and BFP), singletons and clusters recognized by 10 or more cDNA baits (based upon historical YTH assays), and prioritization, four prey clones were identified as hits, designated CL06-nonstim-7, CL06-stim-14, CL06-stim-15 and CL06-stim-2.
The interaction of CL06wt peptide and its mutants with the clones identified as potential targets for the peptide CL06wt was then quantified in a β-galactosidase YTH assay. The YTH assay was performed in the manner described above. A general outline of this YTH assay is illustrated in FIG. 5B. […]
The interaction of these IOF and LOF mutants with different polypeptides encoded by the clones CL06-nonstim-7, CL06-stim-14, CL06-stim-15 and CL06-stim-2 were quantified using the YTH assay described above. […]

[1] = tested on: IL-4 inducible germline ε promoter (A5T4 reporter cell line); test: A5T4 reporter line screening assay: IL-4 induced germline ε promoter driving HBEGF2a/GFP reporter, peptide expressed retrovirally as BFP fusion, FACS; type: cell-based, human; conditions: mutants categorised relative to CL06wt
Text: Peptide CL06wt was identified by screening a retroviral library of random peptide 20-mers for the ability to inhibit IL-4 induced germline ε transcription using the HBEGF2a/diphtheria dual reporter phenotypic screening system described in WO 01/31232. To construct the random library, A5T4 reporter cells (described in more detail below) were infected with an infectious retroviral library of random peptide 20-mers (prepared as described in WO 97/27213; see also WO 01/34806 at page 39, line 36 through page 40, line 19). The retroviral vector used includes a gene encoding blue fluorescent protein (BFP) fused upstream of the region encoding the random peptide via a linker region encoding an α-helical peptide linker (expression fusion product is referred to as “BFP-peptide”). Expression of the BFP-peptide product is controlled by a promoter sensitive to the tetracyline-regulated transactivator such that expression of the BFP-peptide regulated by tetracycline (Tet) or doxycycline (Dox). […]
Following infection, the library was enriched for cells expressing peptides that inhibit IL-4 induced ε transcription as generally outlined in the top half of FIG. 3 and sorted by FACS into single cell clones. […] After 5 days, both populations were stimulated with IL-4 (final conc. 60 U/mL; PeptroTech, Inc.) and, after 3 more days, both populations were analyzed by FACS to measure BFP and GFP fluorescence. […]

IgE production = conditions: in vitro assays, literature; cited from earlier work
[2] = tested on: germline ε promoter (A5T4 reporter line); test: Retinoids contacted with IL-4 stimulated A5T4 reporter cells, inhibition of germline ε transcription; type: cell-based, human; conditions: 0.03 μM, 0.3 μM, 3 μM and 30 μM, FIG. 12
Procedure: IL-4 stimulated A5T4 reporter cells were contacted with varying concentrations of retinoids a-tRA, 13-cRA and 9-cRA (0.03 μM, 0.3 μM, 3 μM and 30 μM) as assessed for inhibition of germline ε transcription. DMSO and a compound known to inhibit germline ε transcription were tested as controls.

germline ε transcription = conditions: in vitro assays, literature; cited from earlier work
[3] = tested on: ST486 endogenous α promoter; test: TAQMAN assay of endogenous germline α promoter transcription in TGF-β stimulated ST486 cells; type: cell-based; conditions: TGF-β 40 ng/ml, average of 3 values, p=0.6867
Procedure: The ability of peptide CL06wt to inhibit transcription of an endogenous germline ε promoter was confirmed using a TAQMAN® assay (Roche Molecular, Alameda, Calif.). Briefly, A5T4 cells were infected with retrovirus capable of expressing peptide CL06wt (prepared as described above). The cells were sorted for BFP^+ to select for infected cells. Infected cells were divided into two populations. One population was exposed to Dox (10 ng/ml). Both populations were stimulated with IL-4 (60 U/ml). After 3 days, the cells were pelleted and the pellets assayed for ε promoter transcription using a TAQMAN assay performed as described in Applied Biosystems Protocol 4310299 (available at http:www.appliedbiosystems.com). The primers and probe, which are specific for the transcription product driven by the A5T4 endogenous ε promoter, were as follows (the probe was labeled at the 5′-end with Fam and at the 3′-end with Tamra):
The assay was similar to that described in the immediately preceding section, except that ST486 cells (ATCC # CRL-1647) engineered to express the tetracycline-regulated transactivator were infected and the infected cells were stimulated with TGF-β (40 ng/ml; Peprotech). The primers and probe, which are specific for the transcription product driven by the ST486 endogenous α promoter, were as follows (the probe was labeled at the 5′-end with Fam and at the 3′-end with Tamra): […]

[4] = target: T2, human retinoid X receptor beta (polypeptide encoded by prey clone CL06-stim-2) (human, UniProt P28702 1-533, limits assumed); test: cell-based or functional assay
T2 sequence (looked up): T1 sequence (P28702 1-533)

[5] = target: T2, human retinoid X receptor beta …; test: beta-galactosidase yeast two-hybrid; CL06SY1 is a loss of function (L) mutant, hence category L (loss of interaction) with CL06-stim-2
[6] = target: T2, human retinoid X receptor beta …; test: cell-based or functional assay; remark: listed apart in the source
[7] = target: T2, human retinoid X receptor beta …; test: beta-galactosidase yeast two-hybrid; CL06LC is a loss of function (L) mutant, hence category L (loss of interaction) with CL06-stim-2

AALCSYAHSYAA [CL06MS, dual alanine mutant of CL06wt]
binding to hRXR-β in yeast two hybrid interaction assay (human RXR-β (hRXR-β)): found to bind | functional category based on reporter ratio [1]: IOF (An increase of function mutant (IOF) shows a >50% increase in reporter function)

CC1=C(/C=C/C(C)=C/C=C/C(C)=C/C(=O)O)C(C)(C)CCC1 [a-tRA, all-trans RA]
inhibition of IgE production (IgE production): inhibit both IgE production and germline ε transcription in a dose-dependent manner | inhibition of germline ε transcription [2]: inhibited germline ε transcription in a dose-dependent manner | inhibition of germline ε transcription (germline ε transcription): inhibit both IgE production and germline ε transcription in a dose-dependent manner

MSLCSYAHSYAA [CL06wt, 12-residue peptide identified from a retroviral random peptide library, expressed as BFP-peptide fusion]
endogenous a inhibition ratio [3]: 0.93 | binding to hRXR-β in yeast two hybrid interaction assay (human RXR-β (hRXR-β)): found to bind

CC1=C(/C=C/C(C)=C\C=C\C(C)=C\C(=O)O)C(C)(C)CCC1 [Peptide 9-cRA, 9-cis RA]
inhibition of germline ε transcription [2]: inhibited germline ε transcription in a dose-dependent manner

CC1=C(/C=C/C(C)=C/C=C/C(C)=C\C(=O)O)C(C)(C)CCC1 [Peptide 13-cRA, 13-cis-RA]
inhibition of IgE production (IgE production): inhibit both IgE production and germline ε transcription in a dose-dependent manner | inhibition of germline ε transcription [2]: inhibited germline ε transcription in a dose-dependent manner | inhibition of germline ε transcription (germline ε transcription): inhibit both IgE production and germline ε transcription in a dose-dependent manner

B1: peptide CL06SY1 (MSLCAAAHSYAA) (peptide)
peptide: MSLCAAAHSYAA
notes: Dual alanine mutant of CL06wt (first S, Y to A, A); Yeast two-hybrid bait fusion and BFP fusion as for CL06wt
Reporter Ratio (A5T4 reporter line, IL-4 induced germline ε transcription) [4]: 1.09 | binding result [5]: no binding

MSLCSYAHSYAA [peptide CL06wt (MSLCSYAHSYAA)]
Reporter Ratio (A5T4 reporter line, IL-4 induced germline ε transcription) [4]: 1.3 | endogenous ε inhibition ratio (TAQMAN assay, +IL-4/-Dox to +IL-4/+Dox) [6]: 1.37

B2: peptide CL06LC (MSAASYAHSYAA) (peptide)
peptide: MSAASYAHSYAA
notes: Dual alanine mutant of CL06wt (L, C to A, A); Yeast two-hybrid bait fusion and BFP fusion as for CL06wt
Reporter Ratio (A5T4 reporter line, IL-4 induced germline ε transcription) [4]: 1.06 | binding result [7]: no binding

AALCSYAHSYAA [peptide CL06MS (AALCSYAHSYAA)]
Reporter Ratio (A5T4 reporter line, IL-4 induced germline ε transcription) [4]: 1.56
